Assay: CGA and CA content of sunflower protein isolates (HPLC)
Assay type: biochemical
Settings: enzyme present
Text: Sunflower meal and sunflower protein treatment with chlorogenic acid esterase. Sunflower seeds were ground using a KitchenAid coffee grinder in two 30 s increments and sieved through a 500 μm filter to make SFM. Two defatting methods were used: cold press and hexane extraction. To make cold pressed SFM, ground seeds were pressed in a Carver Hydraulic Unit Model 3912 3852-0 five times to a pressure of 9,000-10,000 psi. For hexane extracted SFM, fat was removed from ground seeds using a Soxhlet apparatus in 250 mL hexane for 18 h and subsequently dried using a Fischer Scientific Isotemp Oven Model 516G at 45° C. for 3 h. Cold pressed, hexane extracted, and undefatted SFM were then sieved through a 500 μm filter.
To make SPI, 12.5 g of cold pressed, hexane extracted, and undefatted SFM were buffered in 50 mM HEPES at pH 8.0. Samples were continuously stirred for about 10 min until all SFM was completely suspended. Then, 0.2 mg of CGA esterase per g of SFM was added. The final volume for all reactions was 125 mL. In untreated samples, a buffered solution of 50 mM HEPES, pH 8.0 was added instead of the enzyme solution. After 10 min, 0.1 M NaOH was added to each solution until pH reached 9.00±0.03. Samples were left to sit for 30 min and then centrifuged at 5,000 rpm for 20 min at 4° C. The supernatant was placed back into a 250 mL beaker and pH was lowered using 0.1 M HCl to reach an isoelectric pH of 5.00±0.03. Samples were allowed to precipitate at 4° C. overnight (14-16 h). The supernatant was discarded, and the precipitate was lyophilized for 20 h. All experiments (controls and CGA esterase treated samples) were duplicated.
HPLC quantification of CGA and CA in sunflower meal and protein isolates. All solutions were diluted ten-fold in 0.1% formic acid in HPLC-grade water before analysis. Quantification of CGA and CA concentration was performed using an Agilent 1260 series HPLC instrument (Agilent Technologies) equipped with a quaternary pump, an automated sample injector, a diode array detector, and a 4.6 mm×150 mm Luna C18(2) column with a 5 μm particle size and 100 Å pore size (Phenomenex). The injection volume was 20 μL. To elute analytes, mobile phases composed of 0.1% formic acid in HPLC-grade water (A) and 0.1% formic acid in HPLC-grade acetonitrile (B) were used in a linear gradient. The gradient is as follows: 0 to 13% B in 1 min, up to 27% B at 8 min, up to 100% B at 8.5 min, isocratic at 100% B to 9.5 min, 100% B returned to 0% B at 9.6 min with 3 min post-time. The concentrations of CGA and CA were calculated from peak integration data based on 10-point standard curve that spanned a concentration range of 0 to 0.1 mg mL^−1.

B1: CGA esterase: CGA esterase from L. helveticus (Genbank ID: WP_025283955.1, Uniprot ID: U6F2K7), expressed in Escherichia coli; the dimer is the active form (protein, listed as Lactobacillus helveticus)
chain: MSRITIERDGLTLVGDREEPFGEIYDMAIIMHGFAANRNTDLLRQIADDLRDENVASVRFDFNGHGESDGKFEDMTVCNEIADGKAILDYVRTDPHVRDIFLVGHSQGGVVASMLAGLYPDVVKKVVLLAPAAQLKDDALRSNTQGATYDPNHIPDWPLVGNKLGMKLGGFYLRTAQVLPIYEVSQCFTRPVSVIAGTNDQWDPKYAKKYDEVYENSELHMIPNADHRFSGGYKDMAADLTAQFLKPAF
For B1, the “mg CA/g protein” value (SPI from cold pressed SFM) was 3.62 ± 0.05 mg CA/g protein, the “mg CGA/g protein” value (SPI from cold pressed SFM) was 0.00 ± 0.00 mg CGA/g protein and the “mg CA/g protein” value (SPI from hexane extracted SFM) was 3.38 ± 0.25 mg CA/g protein. The “mg CGA/g protein” value (SPI from hexane extracted SFM) was 0.00 ± 0.00 mg CGA/g protein, the “mg CA/g protein” value (SPI from undefatted SFM) was 1.11 ± 0.38 mg CA/g protein and the “mg CGA/g protein” value (SPI from undefatted SFM) was 0.00 ± 0.00 mg CGA/g protein.
